Reference: publication PMC8429771

Key:
[1] = target: Native bovine (β, γ)-actin, P60712;P63258; assay: TIRFM (KD calculated from koff and kon)
[2] = target: Native bovine (β, γ)-actin, P60712;P63258; assay: single molecule TIRFM assay (linear fit of kobs against CP concentration); settings: Cy5-UTRN261N (10 nM), profilin-actin (2 μM), TMR-CP
[3] = target: Native bovine (β, γ)-actin, P60712;P63258; assay: TIRFM single-filament re-growth assay after CP washout (mono-exponential fit); settings: Cy5-UTRN261N (10 nM), profilin-actin (2 μM), myotrophin/V1 (20 nM) after CP washout
[4] = target: Actin (Homo sapiens) (UniProt P60709); settings: cited from earlier work

Row | Kd [1] [nM] | kon [2] [M⁻¹ s⁻¹] | koff [3] [s^-1·10^-3] | Substance | Kd [4] [nM]
1 | 0.3 | 8.68e+06 | 2.6 | Murine heterodimeric capping protein (α1, β2), wildtype (from UniProt P47753;P47757-2) αY277V | 
2 |  |  |  | Profilin (from UniProt P07737) | 19
